Experimental data as given in US20190248902A1 (published 2019).

T1: human ASGR-1 (wild type) (human, UniProt P07306 1-291)
T1 construct: also called wt ASGR1; huASGR-1
T1 sequence: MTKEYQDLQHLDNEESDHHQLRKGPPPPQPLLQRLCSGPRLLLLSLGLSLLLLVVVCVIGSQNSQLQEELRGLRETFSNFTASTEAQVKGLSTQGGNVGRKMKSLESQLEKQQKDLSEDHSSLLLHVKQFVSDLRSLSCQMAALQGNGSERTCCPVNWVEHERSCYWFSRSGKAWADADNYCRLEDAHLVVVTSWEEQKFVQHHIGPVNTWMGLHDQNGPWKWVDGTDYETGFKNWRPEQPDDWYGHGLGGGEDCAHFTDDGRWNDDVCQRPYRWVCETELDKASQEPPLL

T2: human ASGR-1 mutant construct H203 (human, UniProt P07306 1-291)
T2 construct: Arg/Glu scanning: non-arginine residues were changed to arginine; Transiently expressed on CHO-S cells
T2 sequence: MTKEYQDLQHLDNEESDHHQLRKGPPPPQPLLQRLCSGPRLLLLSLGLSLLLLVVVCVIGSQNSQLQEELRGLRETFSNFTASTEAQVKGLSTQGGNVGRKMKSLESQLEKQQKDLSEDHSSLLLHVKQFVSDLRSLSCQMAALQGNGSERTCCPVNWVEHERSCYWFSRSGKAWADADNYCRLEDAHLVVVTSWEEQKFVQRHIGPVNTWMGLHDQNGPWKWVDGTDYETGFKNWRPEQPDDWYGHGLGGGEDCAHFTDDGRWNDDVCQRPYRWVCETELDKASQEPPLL

B1: 60E8 (antibody, V domains shown)
VH: QVQLQESGPGLVRPSATLSLTCTVSGGSISRSSYYWGWIRQPPGKGLEWIGSIYYSGSASYNPSLKSRVTISVDTSENQFSLRLSSVTAADTAVYYCARLDSGWSFDYWGQGTLVTVSS
VL: DIQMTQSPSSLSASVGDRVTFTCRASQGIRNDLGWFQQKPGKAPKRLIYAASSLQSGVPSRFSGSGSGTEFTLTISSLQPEDFATYYCLQHSSYPLTFGGGTKVEIK
notes: mAb
B2: 60C12 (antibody, V domains shown)
VH: QVQLVESGGGVVQPGRSLRLSCAASGFTFSSYGMHWVRQAPGKGLEWVAVIWYDGSNKYYVDSVKGRFTISRDNSKNTLYLQMNSLRAEDTAVYYCARRYSRSWTGGMDVWGQGTTVTVSS
VL: DIVMTQTPLSLSVTPGQPASISCKSSQSLLHSEGKTYLYWYLQKPGQPPQFLIYEVSNRFSGVPDRFSGSGSGTDFTLKISRVEAEDVGIYYCMQSIKYPLTFGGGTKVEIK
notes: mAb
B3: 52H2 (antibody, V domains shown)
VH: EVQLLESGGGLVQPGGSLRLSCAASGFTFSRNAMSWVRQAPGMGLEWVSAISGRGGNTFYADSVKGRFTVSRDNSKNTLFLQMNSLRAEDTAVYYCAKNGREQWLDYWGQGTLVTVSS
VL: DIQMTQSPSSVSASVGDRVTITCRASQNITNWLAWFQQKPGRAPKLLIYTTSSLQSGVPSRFSGSGSGTDFTLTISSLQPEDFATYCCQQTNSFPWTFGHGTKVEVK
notes: mAb
B4: 72F5 (antibody, V domains shown)
VH: EVQLLESGGGLVQPGGSLRLSCAASGFTFSSYAMIWVRQAPGKGLEWVSTISGSGGYTYSADSVKGRFTISRDNSKNTLYLQMNSLRAEDTAVYYCARRIAVTGTEWYDPWGQGTLVTVSS
VL: DIQMTQSPSSLSASVGDRVIIPCRASQNISSYLNWYQQKPGKAPKLLIYAASSLQSGVPSRFSGSGSGTDFTLTISSLQPEDFATYSCQQTYSTPTFGQGTRLDIN
notes: mAb
B5: 151B9 (antibody, V domains shown)
VH: EVQLLESGGGLVQPGGSLRLSCAASGFTFSSYAMSWVRQAPGKGLEWVSVISGGGSSTYYADSVKGRFTISRDNSKNTLYLQMNSLRAEDTAVYYCAKWRGNPTDYGMDVWGQGTTVTVSS
VL: SYELTQPPSVSVSPGQTASIACSGDNLGDKYASWYQQKPGQSPVLVIYQDSKRPSGIPERFSGSNSGNTATLTISGIQAMDEADYYCQAWDSSTVVFGGGTKLTVL
notes: mAb
B6: 175F4 (antibody, V domains shown)
VH: QVQLQQSGPGLVKPSQTLSLTCAISGDSVSSNSAAWNWIRQSPSRGLEWLGRTYYRSKWYNAYPVSMESRISINPDTSKNQFSLQLNSVTPEDTAVYYCARDKAAGRNDFYYYGMDVWGQGTTVTVSS
VL: QSALTQPASVSGSPGQSITISCTGTSSDVGRFNLVSWYQQHPGYAPKLMIYEVSKRPSGVSNRFSGSKSGNTASLTISGLQAEDEADYYCCSYAGSSTYVVFGGGTKLTVL
notes: mAb
B7: 149D11 (antibody, V domains shown)
VH: EVQLLESGGGLVQPGGSLRLSCAASGFTFSSYAMSWVRQAPGKGLEWVSAISGRGGNTFYADSVKGRFTISRDNSKNTLYRQMNSLRAEDTAVYYCAKKDYDYVWGSPYFDYWGQGTLVTVSS
VL: DIQMTQSPASVSASVGDRVTITCRASQNISNWLTWYQQKPGKAPKLLIYAASSLQSGVPSRFSGSGSGTDFTLSISSLQPEDFATYYCQQTDSFPFTFGPGTKVDVK
notes: mAb
B8: 147E9 (antibody, V domains shown)
VH: EVQLVESGGGLVQPGGSLRLSCAASGFTFSSYSMNWVRQAPGKGLEWVSSISGRNTTIYYADSVKGRFTISRDNAKNSLYLQMNSLRDEDTAVYYCSRDRGSCWGQGTLVTVSS
VL: DIQMTQSPSSLSASVGDRVTITCRASQDINNYLAWFQQKPGKAPKSLIVAASSLQSGVPSKFSGSGSGTDFTLTISSLQPEDFATYYCQQYNSYPLTFGGGTKVEIK
notes: mAb
B9: 61A1 (antibody, V domains shown)
VH: QVQLQESGPGLVKPSETLSLTCTVSGGSISSHFWSWIRQPAGKGLEWIGRIYIRGSTNYNPSLKSRVTMSVDTSKNQFSLKLSSVTAADTAVYYCAREGKTGGVSYFDYWGQGTLVTVSS
VL: DIQMTQSPSSLSASVGDRVTITCRASQSISSYLNWYQQKPGKAPKLLIYAASSLQSGVPSRFSGSGSGTDFTLTISSLQPEDFAPYYCQQSYNISFTFGPGTKVDIK
notes: mAb

Experiments:
[1] = molecular target: T1, human ASGR-1 (wild type); assay: FACS, transfected CHO-S cells, mAb 5 ug/ml
Procedure: (§1) The ability of human ASGR-1-specific, ligand competing antibodies to bind to the mutant hASGR-1 proteins was assessed by FACS as described above.
(§2) Antibodies were tested for binding to the individual mutant and wild type ASGR-1 constructs using normalized antibody concentrations (5 ug/ml). CHO—S cells transiently expressing the appropriate mutated or non-mutated antigen of interest were mixed with antibody sample or controls, incubated for 1 hour at 4° C., and then washed twice. Cells with bound antibody were then incubated with Alexa Fluor® 647 IgG Fc fragment-specific detection antibody and 7-AAD viability stain for 15 minutes at 4° C., washed once and resuspended in FACS buffer. Samples were analyzed using a BD Accuri™ Flow Cytometer and an Intellicyt HyperCyt Autosampler. As a negative control, supernatants and controls were also screened against CHO—S cells transfected with empty parental vector (referred to as mock). […] Because mutant hASGR-1 expression levels varied relative to each other, sample binding data for each construct was normalized for expression by dividing the binding data from an antibody not affected by the mutations (e.g., 65C12) by the binding values of each test antibody on a given mutant construct. Also, because the antibody binding affinities varied amongst the samples, the expression corrected data (above) was further normalized by comparing test antibody binding on each mutant construct to wild type hASGR-1. Identification of specific mutations that affected test antibody binding was performed by an interquartile range (IQR) analysis to determine statistical outliers. A mutation was identified as a “hit” if the calculated values were >3× the IQR (above the 3rd quartile/upper fence) for a given mutant construct. Although IQR analysis was used here to determine signifance and identify hits, one skilled in the art will recognize that a number of methods could be employed in order to normalize the data (eg. using epitope-tagged constructs or other ASGR-1-binding antibodies directed against non-CBD epitopes).

[2] = molecular target: T2, human ASGR-1 mutant construct H203; assay: FACS, transfected CHO-S cells, mAb 5 ug/ml
Procedure: as §1, §2

[3] = molecular target: T1, human ASGR-1 (wild type); assay: FACS ratio: 65C12 geomean / this mAb geomean
Procedure: (§3) Mutant hASGR-1 variants were constructed such that non-arginine residues were changed to arginine and where wild type arginine residues were mutated to glutamic acid. Each mutant hASGR-1 sequence was then cloned into a mammalian expression vector and used to transiently transfect CHOs cells. The ability of human ASGR-1-specific, ligand competing antibodies to bind to the mutant hASGR-1 proteins was assessed by FACS as described above.
(§4) Antibodies were tested for binding to the individual mutant and wild type ASGR-1 constructs using normalized antibody concentrations (5 ug/ml). CHO—S cells transiently expressing the appropriate mutated or non-mutated antigen of interest were mixed with antibody sample or controls, incubated for 1 hour at 4° C., and then washed twice. Cells with bound antibody were then incubated with Alexa Fluor® 647 IgG Fc fragment-specific detection antibody and 7-AAD viability stain for 15 minutes at 4° C., washed once and resuspended in FACS buffer. Samples were analyzed using a BD Accuri™ Flow Cytometer and an Intellicyt HyperCyt Autosampler. As a negative control, supernatants and controls were also screened against CHO—S cells transfected with empty parental vector (referred to as mock). […] Because mutant hASGR-1 expression levels varied relative to each other, sample binding data for each construct was normalized for expression by dividing the binding data from an antibody not affected by the mutations (e.g., 65C12) by the binding values of each test antibody on a given mutant construct. Also, because the antibody binding affinities varied amongst the samples, the expression corrected data (above) was further normalized by comparing test antibody binding on each mutant construct to wild type hASGR-1. Identification of specific mutations that affected test antibody binding was performed by an interquartile range (IQR) analysis to determine statistical outliers. A mutation was identified as a “hit” if the calculated values were >3× the IQR (above the 3rd quartile/upper fence) for a given mutant construct.

[4] = molecular target: T2, human ASGR-1 mutant construct H203; assay: FACS ratio: 65C12 geomean / this mAb geomean
Procedure: as §3, §4

[5] = molecular target: T2, human ASGR-1 mutant construct H203; assay: FACS ratio: H203 normalized value / wt normalized value
Procedure: as §1, §2

Binder	FACS Binding Geomean [1]	FACS Binding Geomean [2]	Expression Normalization to mAb 65C12 [3]	Expression Normalization to mAb 65C12 [4]	Normalization to wt ASGR1 Binding [5]
B1	38700	1520	1.45	17	11.7
B2	31300	19800	1.79	1.3	0.725
B3	48000	18600	1.17	1.38	1.18
B4	28000	10500	2	2.45	1.22
B5	23500	9740	2.38	2.65	1.11
B6	33600	14800	1.67	1.74	1.04
B7	23600	8870	2.38	2.91	1.22
B8	40200	21500	1.4	1.2	0.858
B9	40000	20100	1.4	1.28	0.911
